Assay results: the Human Domainome abundance scans (Beltran et al. 2025)
± gives the uncertainty stated by the source.

B1: GAS2-like protein 1, residues 209 to 276; numbered along this chain, Q99501 (parent)
chain: DELVREILGRCTCPDQFPMIKVSEGKYRVGDSSLLIFVRVLRSHVMVRVGGGWDTLEHYLDKHDPCRC

Variants of: B1
Test: abundance fitness (aPCA) (normalised: wild type 0, dead -1); higher = more abundant; growth selection in yeast, the domain comes from the species named
Conditions: Homo sapiens

Row | Variant | abundance fitness
1 | DELVREILGRCTCPDQFPMIKVSEGKYRVGDSSLLIFVRVLRSHVMVRVGGGWDHLEHYLDKHDPCRC [T55H] | -0.399 ± 0.15
2 | DELVREILGRCTCPDQFPMIKVSEGKYRVGDSSLLIFVRVLRSHVMVRVGGGWDILEHYLDKHDPCRC [T55I] | -0.817 ± 0.1
3 | DELVREILGRCTCPDQFPMIKVSEGKYRVGDSSLLIFVRVLRSHVMVRVGGGWDKLEHYLDKHDPCRC [T55K] | -0.489 ± 0.14
4 | DELVREILGRCTCPDQFPMIKVSEGKYRVGDSSLLIFVRVLRSHVMVRVGGGWDLLEHYLDKHDPCRC [T55L] | -0.145 ± 0.046
5 | DELVREILGRCTCPDQFPMIKVSEGKYRVGDSSLLIFVRVLRSHVMVRVGGGWDMLEHYLDKHDPCRC [T55M] | -0.512 ± 0.086
6 | DELVREILGRCTCPDQFPMIKVSEGKYRVGDSSLLIFVRVLRSHVMVRVGGGWDNLEHYLDKHDPCRC [T55N] | -0.185 ± 0.08
7 | DELVREILGRCTCPDQFPMIKVSEGKYRVGDSSLLIFVRVLRSHVMVRVGGGWDPLEHYLDKHDPCRC [T55P] | -0.282 ± 0.092
8 | DELVREILGRCTCPDQFPMIKVSEGKYRVGDSSLLIFVRVLRSHVMVRVGGGWDQLEHYLDKHDPCRC [T55Q] | -0.431 ± 0.065
9 | DELVREILGRCTCPDQFPMIKVSEGKYRVGDSSLLIFVRVLRSHVMVRVGGGWDRLEHYLDKHDPCRC [T55R] | -0.09 ± 0.039
10 | DELVREILGRCTCPDQFPMIKVSEGKYRVGDSSLLIFVRVLRSHVMVRVGGGWDSLEHYLDKHDPCRC [T55S] | 0.027 ± 0.05
11 | DELVREILGRCTCPDQFPMIKVSEGKYRVGDSSLLIFVRVLRSHVMVRVGGGWDVLEHYLDKHDPCRC [T55V] | -0.773 ± 0.11
12 | DELVREILGRCTCPDQFPMIKVSEGKYRVGDSSLLIFVRVLRSHVMVRVGGGWDWLEHYLDKHDPCRC [T55W] | -0.801 ± 0.14
13 | DELVREILGRCTCPDQFPMIKVSEGKYRVGDSSLLIFVRVLRSHVMVRVGGGWDYLEHYLDKHDPCRC [T55Y] | -0.033 ± 0.092
14 | DELVREILGRCTCPDQFPMIKVSEGKYRVGDSSLLIFVRVLRSHVMVRVGGGWDTAEHYLDKHDPCRC [L56A] | -0.944 ± 0.12
15 | DELVREILGRCTCPDQFPMIKVSEGKYRVGDSSLLIFVRVLRSHVMVRVGGGWDTCEHYLDKHDPCRC [L56C] | -0.916 ± 0.28
16 | DELVREILGRCTCPDQFPMIKVSEGKYRVGDSSLLIFVRVLRSHVMVRVGGGWDTDEHYLDKHDPCRC [L56D] | -0.852 ± 0.19
17 | DELVREILGRCTCPDQFPMIKVSEGKYRVGDSSLLIFVRVLRSHVMVRVGGGWDTEEHYLDKHDPCRC [L56E] | -0.965 ± 0.24
18 | DELVREILGRCTCPDQFPMIKVSEGKYRVGDSSLLIFVRVLRSHVMVRVGGGWDTFEHYLDKHDPCRC [L56F] | -0.3 ± 0.088
19 | DELVREILGRCTCPDQFPMIKVSEGKYRVGDSSLLIFVRVLRSHVMVRVGGGWDTGEHYLDKHDPCRC [L56G] | -0.546 ± 0.062
20 | DELVREILGRCTCPDQFPMIKVSEGKYRVGDSSLLIFVRVLRSHVMVRVGGGWDTHEHYLDKHDPCRC [L56H] | -0.959 ± 0.21

Row | Variant | abundance fitness
21 | DELVREILGRCTCPDQFPMIKVSEGKYRVGDSSLLIFVRVLRSHVMVRVGGGWDTIEHYLDKHDPCRC [L56I] | -0.485 ± 0.13
22 | DELVREILGRCTCPDQFPMIKVSEGKYRVGDSSLLIFVRVLRSHVMVRVGGGWDTKEHYLDKHDPCRC [L56K] | -0.868 ± 0.13
23 | DELVREILGRCTCPDQFPMIKVSEGKYRVGDSSLLIFVRVLRSHVMVRVGGGWDTMEHYLDKHDPCRC [L56M] | -0.628 ± 0.12
24 | DELVREILGRCTCPDQFPMIKVSEGKYRVGDSSLLIFVRVLRSHVMVRVGGGWDTNEHYLDKHDPCRC [L56N] | -0.806 ± 0.26
25 | DELVREILGRCTCPDQFPMIKVSEGKYRVGDSSLLIFVRVLRSHVMVRVGGGWDTQEHYLDKHDPCRC [L56Q] | -1.13 ± 0.39
26 | DELVREILGRCTCPDQFPMIKVSEGKYRVGDSSLLIFVRVLRSHVMVRVGGGWDTSEHYLDKHDPCRC [L56S] | -0.691 ± 0.098
27 | DELVREILGRCTCPDQFPMIKVSEGKYRVGDSSLLIFVRVLRSHVMVRVGGGWDTVEHYLDKHDPCRC [L56V] | -0.967 ± 0.11
28 | DELVREILGRCTCPDQFPMIKVSEGKYRVGDSSLLIFVRVLRSHVMVRVGGGWDTWEHYLDKHDPCRC [L56W] | -0.883 ± 0.15
29 | DELVREILGRCTCPDQFPMIKVSEGKYRVGDSSLLIFVRVLRSHVMVRVGGGWDTYEHYLDKHDPCRC [L56Y] | -0.716 ± 0.12
30 | DELVREILGRCTCPDQFPMIKVSEGKYRVGDSSLLIFVRVLRSHVMVRVGGGWDTLCHYLDKHDPCRC [E57C] | -0.993 ± 0.18
31 | DELVREILGRCTCPDQFPMIKVSEGKYRVGDSSLLIFVRVLRSHVMVRVGGGWDTLDHYLDKHDPCRC [E57D] | -0.21 ± 0.2
32 | DELVREILGRCTCPDQFPMIKVSEGKYRVGDSSLLIFVRVLRSHVMVRVGGGWDTLFHYLDKHDPCRC [E57F] | -0.958 ± 0.14
33 | DELVREILGRCTCPDQFPMIKVSEGKYRVGDSSLLIFVRVLRSHVMVRVGGGWDTLGHYLDKHDPCRC [E57G] | -0.627 ± 0.11
34 | DELVREILGRCTCPDQFPMIKVSEGKYRVGDSSLLIFVRVLRSHVMVRVGGGWDTLHHYLDKHDPCRC [E57H] | -0.669 ± 0.086
35 | DELVREILGRCTCPDQFPMIKVSEGKYRVGDSSLLIFVRVLRSHVMVRVGGGWDTLIHYLDKHDPCRC [E57I] | -0.669 ± 0.11
36 | DELVREILGRCTCPDQFPMIKVSEGKYRVGDSSLLIFVRVLRSHVMVRVGGGWDTLKHYLDKHDPCRC [E57K] | -0.598 ± 0.33
37 | DELVREILGRCTCPDQFPMIKVSEGKYRVGDSSLLIFVRVLRSHVMVRVGGGWDTLLHYLDKHDPCRC [E57L] | -0.873 ± 0.12
38 | DELVREILGRCTCPDQFPMIKVSEGKYRVGDSSLLIFVRVLRSHVMVRVGGGWDTLPHYLDKHDPCRC [E57P] | -0.922 ± 0.16
39 | DELVREILGRCTCPDQFPMIKVSEGKYRVGDSSLLIFVRVLRSHVMVRVGGGWDTLQHYLDKHDPCRC [E57Q] | -0.235 ± 0.16
40 | DELVREILGRCTCPDQFPMIKVSEGKYRVGDSSLLIFVRVLRSHVMVRVGGGWDTLRHYLDKHDPCRC [E57R] | -0.899 ± 0.14
